Reference: the RNAGym collection of RNA variant scans (doi:10.7554/elife.90254)

B1: LINE1-full (parent)
chain: UACGUAGGUGGUUUUCCCCUGAUAGUGCUAAGGGGGCCUGGAAGUUUGGACUGGGCAGAGCUCAACACAGCGUGGCAAAGUGGCUGUGGCUAGACUGCCUCUCUGGAUUCCUCGUCACUCAGCAGGGCAUCUCUGAGAGAAAUGCC

Variants of: B1
Assay: self-cleavage, relative activity (ratio to wild type); higher = more cleavage; in vitro, sequencing; the parent is a self-cleaving ribozyme

| Variant | self-cleavage |
| --- | --- |
| U87C U108C | 0.24 |
| A78G | 1.23 |
| A64U U73A | 0.21 |
| U14C U134G | 1.23 |
| U13C U62C | 0.09 |
| G7A U13C | 0.81 |
| A107G U108C | 1.42 |
| U52A U119A | 1.47 |
| U115A A140G | 1.27 |
| A2G U45A | 0.63 |
| G40C | 1.12 |
| U91C U115G | 0.69 |
| U5A A59U | 0.52 |
| U20A U39A | 0.84 |
| G35U A77U | 1.31 |
| A22U A43U | 1.43 |
| G8A U132C | 1.58 |
| U115G U119A | 1.36 |
| U12G C120A | 1.49 |
| U108C C145G | 2.49 |
| A31U A121U | 0.51 |
| U23C U96C | 0.21 |
| U39G A77G | 1.53 |
| G21A C120A | 1.11 |

| Variant | self-cleavage |
| --- | --- |
| U29A A142G | 1.04 |
| A121G A138U | 1.59 |
| A124G G127A | 1.15 |
| U73A U91A | 0.72 |
| U39C U85A | 0.05 |
| C133U A138U | 2.36 |
| A69G U91A | 0.16 |
| A24G U102A | 1.15 |
| U47C U96C | 0.25 |
| A24C U47C | 2.18 |
| A117G | 1.49 |
| U13C C116A | 1.15 |
| U46G A141G | 1.16 |
| G122U C123U | 0.8 |
| G7A U45A | 0.53 |
| A24G G27U | 1.17 |
| G89A U115C | 0.04 |
| A77U U119C | 1.58 |
| U96C U130C | 0.24 |
| U1A U39C | 1.2 |
| U13A A77G | 0.46 |
| A65U U73A | 0.18 |
| A22U U134A | 1.15 |
| U102A A107U | 1.66 |

| Variant | self-cleavage |
| --- | --- |
| U112C A140G | 0.83 |
| A59C A138U | 1.62 |
| A42C U100C | 1.25 |
| U45A U73C | 1.32 |
| U26C A92U | 0.81 |
| G34U A140G | 1.67 |
| A43G A136U | 1.5 |
| U23C G55C | 0.06 |
| U47C G75C | 0.97 |
| A42G A129U | 1.75 |
| U26C G35A | 1.26 |
| C63U A129U | 0.54 |
| G8A U13C | 1.05 |
| U115C C146A | 1.82 |
| G74A U102C | 1.08 |
| A22G A67U | 0.23 |
| G35A A57U | 0.05 |
| G8A U119C | 1.1 |
| G53U U134A | 0.68 |
| G114C A138G | 1.41 |
| U12G A117G | 1.35 |
| C116U A138U | 1.41 |
| A107G U143A | 1.51 |
| U14C U46A | 1.4 |

| Variant | self-cleavage |
| --- | --- |
| A50C U81A | 1.76 |
| G7A C111U | 0.35 |
| U15A C90A | 0.02 |
| C95U U108C | 0.42 |
| U12A U73A | 1.47 |
| C68U U112C | 0.06 |
| A22U A121C | 1.27 |
| C38U U52C | 1.44 |
| C61U A124G | 0.04 |
| U13C U46G | 1.31 |
| C38A A124G | 0.68 |
| U5A A138G | 0.75 |
| U13A A92G | 0.12 |
| U115A | 1.36 |
| U62A U81G | 0.02 |
| A50G C84U | 0.11 |
| A124G G125U | 1.27 |
| U112A A138G | 1.57 |
| U45C U143C | 1.7 |
| U15G A69G | 0.95 |
| A50U U115C | 1.17 |
| U46C A129C | 1.99 |
| U73C A124U | 1.5 |
| A43U A77U | 1.02 |

| Variant | self-cleavage |
| --- | --- |
| G40A A107G | 1.17 |
| G27A G55A | 0.21 |
| A92C U109C | 0 |
| G34A G82U | 2.19 |
| A2U U9C | 0.7 |
| U47A U85A | 0.04 |
| U96G A136G | 0.13 |
| G32A A129G | 0.93 |
| A79G C146U | 1.3 |
| U26A U73A | 1.24 |
| U52A C98U | 0.12 |
| A92U U108C | 1.2 |
| G32U U73A | 0.89 |
| A67G U81C | 0.35 |
| U20G U109G | 0.43 |
| U23C A50U | 1 |
| G34A A124U | 1.32 |
| A67G C131U | 0.56 |
| U81C A138G | 1.14 |
| G33A A142U | 1.43 |
| U26A A64U | 0.23 |
| U15C A129G | 1.54 |
| A22U A142U | 1.48 |
| C61U A129U | 0.02 |

| Variant | self-cleavage |
| --- | --- |
| G7A A124C | 1.37 |
| G106U A138G | 0.99 |
| U1C U132C | 0.97 |
| G54A U100C | 0.31 |
| C28U A138G | 1.01 |
| A64U U134A | 0.16 |
| A67C C123A | 0.07 |
| G32A U115C | 0.95 |
| G70U U81C | 0.3 |
| A22G A136U | 0.87 |
| U29C U73C | 1.3 |
| U23G U46A | 1.3 |
| A59G U104C | 0.15 |
| U1A G54A | 1.05 |
| U52A U87A | 0.08 |
| A6G U104C | 1.23 |
| A42U A142G | 0.88 |
| G49A G82U | 1.49 |
| A129G U143C | 1.59 |
| G40U G139A | 1.17 |
| U9A U112A | 0.82 |
| U23A A140G | 1.41 |
| A69G A136U | 0.45 |
| A2G G55A | 0.2 |

| Variant | self-cleavage |
| --- | --- |
| U5A A42G | 1.15 |
| U102G A140G | 0.39 |
| U73C U87A | 0.31 |
| U13C U20C | 1.06 |
| U46A G125C | 1.35 |
| C17G U52C | 1.22 |
| U13A C19A | 1.84 |
| G27A U46C | 0.7 |
| A65U A124G | 0.09 |
| U73C A140U | 1.85 |
| U45A A64G | 0.57 |
| C118U U134C | 1.13 |
| G126A A141G | 1.34 |
| C18U A69G | 0.29 |
| U45G U87A | 0.07 |
| U104A C131U | 1.55 |
| C71U U100A | 0.04 |
| U46A G75U | 0.84 |
| A69U U87A | 0.04 |
| U62C A77C | 0.05 |
| A92U U143A | 0.6 |
| C3U A129G | 1.62 |
| U14C U73A | 1.31 |
